Measured values reported in publication PMC6898792 (2019).

Key:
VEGFR2 (dimer) = VEGFR2 (dimer) (Homo sapiens, UniProt P35968); experiment: global fit
VEGFR2 (monomer) = VEGFR2 (monomer) (Homo sapiens, UniProt P35968); experiment: global fit
Sequence of VEGFR2 (monomer) (P35968 20-1356): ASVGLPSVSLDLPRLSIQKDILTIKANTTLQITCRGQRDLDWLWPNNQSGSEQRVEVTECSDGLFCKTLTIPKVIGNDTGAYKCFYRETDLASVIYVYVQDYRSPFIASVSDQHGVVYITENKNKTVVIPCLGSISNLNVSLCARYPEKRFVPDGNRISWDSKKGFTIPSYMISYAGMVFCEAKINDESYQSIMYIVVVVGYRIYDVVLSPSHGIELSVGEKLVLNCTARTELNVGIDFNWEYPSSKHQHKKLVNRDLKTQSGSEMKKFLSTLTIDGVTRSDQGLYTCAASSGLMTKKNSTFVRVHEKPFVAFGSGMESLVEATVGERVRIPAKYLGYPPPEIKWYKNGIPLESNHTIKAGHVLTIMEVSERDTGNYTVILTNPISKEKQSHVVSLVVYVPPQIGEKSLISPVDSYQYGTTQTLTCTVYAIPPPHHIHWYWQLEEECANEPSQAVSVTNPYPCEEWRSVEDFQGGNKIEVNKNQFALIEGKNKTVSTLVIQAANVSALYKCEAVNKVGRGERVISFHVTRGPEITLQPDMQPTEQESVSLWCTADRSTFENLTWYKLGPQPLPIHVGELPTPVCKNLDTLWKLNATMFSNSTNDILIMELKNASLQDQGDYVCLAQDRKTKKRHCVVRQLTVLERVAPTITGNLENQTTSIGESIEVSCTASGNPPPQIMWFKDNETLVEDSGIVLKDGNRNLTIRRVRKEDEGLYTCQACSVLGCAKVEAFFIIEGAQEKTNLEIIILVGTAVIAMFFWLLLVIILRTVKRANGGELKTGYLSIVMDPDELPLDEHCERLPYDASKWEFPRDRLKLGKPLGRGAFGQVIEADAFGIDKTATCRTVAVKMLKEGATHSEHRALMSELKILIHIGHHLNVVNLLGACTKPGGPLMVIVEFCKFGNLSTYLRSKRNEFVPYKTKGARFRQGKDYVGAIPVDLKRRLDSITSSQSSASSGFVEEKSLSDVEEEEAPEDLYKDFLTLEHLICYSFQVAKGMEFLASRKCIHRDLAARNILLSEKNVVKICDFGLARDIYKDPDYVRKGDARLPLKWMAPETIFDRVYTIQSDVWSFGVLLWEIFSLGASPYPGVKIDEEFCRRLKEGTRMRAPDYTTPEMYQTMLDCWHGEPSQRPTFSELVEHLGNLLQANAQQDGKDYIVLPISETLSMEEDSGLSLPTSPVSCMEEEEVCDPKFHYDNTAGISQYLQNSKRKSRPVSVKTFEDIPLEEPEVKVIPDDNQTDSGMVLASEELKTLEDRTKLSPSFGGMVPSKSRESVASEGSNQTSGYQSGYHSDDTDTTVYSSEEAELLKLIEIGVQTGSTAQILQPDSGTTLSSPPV

Sequence of VEGFR2 (dimer) (P35968 20-1356): as above

B1: VEGF (protein)
chain: MTDRQTDTAPSPSYHLLPGRRRTVDAAASRGQGPEPAPGGGVEGVGARGVALKLFVQLLGCSRFGGAVVRAGEAEPSGAARSASSGREEPQPEEGEEEEEKEEERGPQWRLGARKPGSWTGEAAVCADSAPAARAPQALARASGRGGRVARRGAEESGPPHSPSRRGSASRAGPGRASETMNFLLSWVHWSLALLLYLHHAKWSQAAPMAEGGGQNHHEVVKFMDVYQRSYCHPIETLVDIFQEYPDEIEYIFKPSCVPLMRCGGCCNDEGLECVPTEESNITMQIMRIKPHQGQHIGEMSFLQHNKCECRPKKDRARQEKKSVRGKGKGQKRKRKKSRYKSWSVPCGPCSERRKHLFVQDPQTCKCSCKNTDSRCKARQLELNERTCRCDKPRR
With B1 the Kd (VEGFR2 (dimer)) was 0.23 nM and the Kd (VEGFR2 (monomer)) was 10 nM.
